From article PMC11446282
Numbering of substitutions follows the chain as printed.

B1: CDCA4 E53: CDCA4, E53 to alanine (protein, UniProt Q9BXL8 1-241, looked up, variant E53A)
Cell division …: MFARGLKRKCVGHEEDVEGALAGLKTVSSYSLQRQSLLDMSLVKLQLCHMLVAPNLCRSVLIANTVRQIQEEMTQDGTWRTVAPQAAERAPLDRLVSTEILCRAAWGQEGAHPAPGLGDGHTQGPVSDLCPVTSAQAPRHLQSSAWEMDGPRENRGSFHKSLDQIFETLETKNPSCMEELFSDVDSPYYDLDTVLTGMMGGARPGPCEGLEGLAPATPGPSSSCKSDLGELDHVVEILVET
B2: CDCA4 T65: CDCA4, T65 to alanine (protein, UniProt Q9BXL8 1-241, looked up, variant T65A)
Cell division …: B1 Cell division … with A53E, T65A
B3: CDCA4 P54: CDCA4, P54 to alanine (protein, UniProt Q9BXL8 1-241, looked up, variant P54A)
Cell division …: B1 Cell division … with A53E, P54A
B4: CDCA4 C57: CDCA4, C57 to alanine (protein, UniProt Q9BXL8 1-241, looked up, variant C57A)
Cell division …: B1 Cell division … with A53E, C57A
B5: CDCA4 L56: CDCA4, L56 to alanine (protein, UniProt Q9BXL8 1-241, looked up, variant L56A)
Cell division …: B1 Cell division … with A53E, L56A
B6: CDCA4 N64: CDCA4, N64 to alanine (protein, UniProt Q9BXL8 1-241, looked up, variant N64A)
Cell division …: B1 Cell division … with A53E, N64A
B7: CDCA4 S59: CDCA4, S59 to alanine (protein, UniProt Q9BXL8 1-241, looked up, variant S59A)
Cell division …: B1 Cell division … with A53E, S59A
B8: CDCA4 V43: CDCA4, V43 to alanine (protein, UniProt Q9BXL8 1-241, looked up, variant V43A)
Cell division …: B1 Cell division … with V43A, A53E
B9: CDCA4 L61: CDCA4, L61 to alanine (protein, UniProt Q9BXL8 1-241, looked up, variant L61A)
Cell division …: B1 Cell division … with A53E, L61A
B10: CDCA4 R58: CDCA4, R58 to alanine (protein, UniProt Q9BXL8 1-241, looked up, variant R58A)
Cell division …: B1 Cell division … with A53E, R58A
B11: CDCA4 N55: CDCA4, N55 to alanine (protein, UniProt Q9BXL8 1-241, looked up, variant N55A)
Cell division …: B1 Cell division … with A53E, N55A
B12: CDCA4 I62: CDCA4, I62 to alanine (protein, UniProt Q9BXL8 1-241, looked up, variant I62A)
Cell division …: B1 Cell division … with A53E, I62A
B13: CDCA4 V66: CDCA4, V66 to alanine (protein, UniProt Q9BXL8 1-241, looked up, variant V66A)
Cell division …: B1 Cell division … with A53E, V66A
B14: CDCA4 V60: CDCA4, V60 to alanine (protein, UniProt Q9BXL8 1-241, looked up, variant V60A)
Cell division …: B1 Cell division … with A53E, V60A
B15: CDCA4 L42: CDCA4, L42 to alanine (protein, UniProt Q9BXL8 1-241, looked up, variant L42A)
Cell division …: B1 Cell division … with L42A, A53E
B16: AMOTL2 R14: AMOTL2, R14 to alanine (protein, UniProt Q9Y2J4 1-779, looked up, variant R14A)
Angiomotin-like protein 2: MRTLEDSSGTVLHALIQEQLRYGNLTETRTLLAIQQQALRGGAGTGGTGSPQASLEILAPEDSQVLQQATRQEPQGQEHQGGENHLAENTLYRLCPQPSKGEELPTYEEAKAHSQYYAAQQAGTRPHAGDRDPRGAPGGSRRQDEALRELRHGHVRSLSERLLQLSLERNGARAPSHMSSSHSFPQLARNQQGPPLRGPPAEGPESRGPPPQYPHVVLAHETTTAVTDPRYRARGSPHFQHAEVRILQAQVPPVFLQQQQQYQYLQQSQEHPPPPHPAALGHGPLSSLSPPAVEGPVSAQASSATSGSAHLAQMEAVLRENARLQRDNERLQRELESSAEKAGRIEKLESEIQRLSEAHESLTRASSKREALEKTMRNKMDSEMRRLQDFNRDLRERLESANRRLASKTQEAQAGSQDMVAKLLAQSYEQQQEQEKLEREMALLRGAIEDQRRRAELLEQALGNAQGRAARAEEELRKKQAYVEKVERLQQALGQLQAACEKREQLELRLRTRLEQELKALRAQQRQAGAPGGSSGSGGSPELSALRLSEQLREKEEQILALEADMTKWEQKYLEERAMRQFAMDAAATAAAQRDTTLIRHSPQPSPSSSFNEGLLTGGHRHQEMESRLKVLHAQILEKDAVIKVLQQRSRRDPGKAIQGSLRPAKSVPSVFAAAAAGTQGWQGLSSSERQTADAPARLTTDRAPTEEPVVTAPPAAHAKHGSRDGSTQTEGPPDSTSTCLPPEPDSLLGCSSSQRAASLDSVATSRVQDLSDMVEILI
B17: AMOTL2 L31: AMOTL2, L31 to alanine (protein, UniProt Q9Y2J4 1-779, looked up, variant L31A)
Angiomotin-like protein 2: B16 Angiomotin-like protein 2 with A14R, L31A
B18: AMOTL2 E18: AMOTL2, E18 to alanine (protein, UniProt Q9Y2J4 1-779, looked up, variant E18A)
Angiomotin-like protein 2: B16 Angiomotin-like protein 2 with A14R, E18A
B19: AMOTL2 T28: AMOTL2, T28 to alanine (protein, UniProt Q9Y2J4 1-779, looked up, variant T28A)
Angiomotin-like protein 2: B16 Angiomotin-like protein 2 with A14R, T28A
B20: AMOTL2 L20: AMOTL2, L20 to alanine (protein, UniProt Q9Y2J4 1-779, looked up, variant L20A)
Angiomotin-like protein 2: B16 Angiomotin-like protein 2 with A14R, L20A
B21: AMOTL2 Q35: AMOTL2, Q35 to alanine (protein, UniProt Q9Y2J4 1-779, looked up, variant Q35A)
Angiomotin-like protein 2: B16 Angiomotin-like protein 2 with A14R, Q35A
B22: AMOTL2 V11: AMOTL2, V11 to alanine (protein, UniProt Q9Y2J4 1-779, looked up, variant V11A)
Angiomotin-like protein 2: B16 Angiomotin-like protein 2 with V11A, A14R
B23: AMOTL2 Q37: AMOTL2, Q37 to alanine (protein, UniProt Q9Y2J4 1-779, looked up, variant Q37A)
Angiomotin-like protein 2: B16 Angiomotin-like protein 2 with A14R, Q37A
B24: AMOTL2 I34: AMOTL2, I34 to alanine (protein, UniProt Q9Y2J4 1-779, looked up, variant I34A)
Angiomotin-like protein 2: B16 Angiomotin-like protein 2 with A14R, I34A
B25: AMOTL2 I16: AMOTL2, I16 to alanine (protein, UniProt Q9Y2J4 1-779, looked up, variant I16A)
Angiomotin-like protein 2: B16 Angiomotin-like protein 2 with A14R, I16A
B26: AMOTL2 R21: AMOTL2, R21 to alanine (protein, UniProt Q9Y2J4 1-779, looked up, variant R21A)
Angiomotin-like protein 2: B16 Angiomotin-like protein 2 with A14R, R21A
B27: AMOTL2 E27: AMOTL2, E27 to alanine (protein, UniProt Q9Y2J4 1-779, looked up, variant E27A)
Angiomotin-like protein 2: B16 Angiomotin-like protein 2 with A14R, E27A
B28: AMOTL2 T10: AMOTL2, T10 to alanine (protein, UniProt Q9Y2J4 1-779, looked up, variant T10A)
Angiomotin-like protein 2: B16 Angiomotin-like protein 2 with T10A, A14R
B29: AMOTL2 T30: AMOTL2, T30 to alanine (protein, UniProt Q9Y2J4 1-779, looked up, variant T30A)
Angiomotin-like protein 2: B16 Angiomotin-like protein 2 with A14R, T30A
B30: AMOTL2 R29: AMOTL2, R29 to alanine (protein, UniProt Q9Y2J4 1-779, looked up, variant R29A)
Angiomotin-like protein 2: B16 Angiomotin-like protein 2 with A14R, R29A
B31: AMOTL2 Y22: AMOTL2, Y22 to alanine (protein, UniProt Q9Y2J4 1-779, looked up, variant Y22A)
Angiomotin-like protein 2: B16 Angiomotin-like protein 2 with A14R, Y22A
B32: AMOTL2 Q19: AMOTL2, Q19 to alanine (protein, UniProt Q9Y2J4 1-779, looked up, variant Q19A)
Angiomotin-like protein 2: B16 Angiomotin-like protein 2 with A14R, Q19A
B33: AMOTL2 Q17: AMOTL2, Q17 to alanine (protein, UniProt Q9Y2J4 1-779, looked up, variant Q17A)
Angiomotin-like protein 2: B16 Angiomotin-like protein 2 with A14R, Q17A
B34: AMOTL2 Q36: AMOTL2, Q36 to alanine (protein, UniProt Q9Y2J4 1-779, looked up, variant Q36A)
Angiomotin-like protein 2: B16 Angiomotin-like protein 2 with A14R, Q36A
B35: AMOTL2 L15: AMOTL2, L15 to alanine (protein, UniProt Q9Y2J4 1-779, looked up, variant L15A)
Angiomotin-like protein 2: B16 Angiomotin-like protein 2 with A14R, L15A
B36: AMOTL2 H13: AMOTL2, H13 to alanine (protein, UniProt Q9Y2J4 1-779, looked up, variant H13A)
Angiomotin-like protein 2: B16 Angiomotin-like protein 2 with H13A, A14R
B37: AMOTL2 L32: AMOTL2, L32 to alanine (protein, UniProt Q9Y2J4 1-779, looked up, variant L32A)
Angiomotin-like protein 2: B16 Angiomotin-like protein 2 with A14R, L32A
B38: AMOTL2 L12: AMOTL2, L12 to alanine (protein, UniProt Q9Y2J4 1-779, looked up, variant L12A)
Angiomotin-like protein 2: B16 Angiomotin-like protein 2 with L12A, A14R

Tested on: PP2A-B55α
Test: Single alanine mutational scan, YFP-tagged interactors immunoprecipitated from HeLa cells, Western blot
Format: binding, human
[1] = single alanine mutant of YFP-tagged CDCA4
[2] = single alanine mutant of YFP-tagged AMOTL2

| Molecule | Experimental % binding [1] | Experimental % binding [2] |
| --- | --- | --- |
| B1 | 153% | – |
| B2 | 28% | – |
| B3 | 66% | – |
| B4 | 91% | – |
| B5 | 42% | – |
| B6 | 57% | – |
| B7 | 64% | – |
| B8 | 81% | – |
| B9 | 28% | – |
| B10 | 37% | – |
| B11 | 99% | – |
| B12 | 7% | – |
| B13 | 38% | – |
| B14 | 47% | – |
| B15 | 129% | – |
| B16 | – | 15% |
| B17 | – | 115% |
| B18 | – | 133% |
| B19 | – | 4% |

| Molecule | Experimental % binding [1] | Experimental % binding [2] |
| --- | --- | --- |
| B20 | – | 98% |
| B21 | – | 61% |
| B22 | – | 114% |
| B23 | – | 44% |
| B24 | – | 15% |
| B25 | – | 32% |
| B26 | – | 60% |
| B27 | – | 165% |
| B28 | – | 104% |
| B29 | – | 85% |
| B30 | – | 4% |
| B31 | – | 25% |
| B32 | – | 120% |
| B33 | – | 143% |
| B34 | – | 76% |
| B35 | – | 32% |
| B36 | – | 110% |
| B37 | – | 118% |
| B38 | – | 88% |
